Experimental data taken from the supplement of paper PMC12764529.
± gives the half width of the 95% confidence interval.

What was measured:
[1] = folding stability dG unfold (combined trypsin and chymotrypsin); higher = more stable
In short: (§1)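 Mini-proteins designed to be under 80 residues and free of cysteine were carried in a PA-tagged cDNA display construct and digested with trypsin and with chymotrypsin. Each protease was applied at 11 threefold-diluted concentrations, alongside a no-protease condition, before sequencing. K50 came from Bayesian fitting of the sequencing counts, and unfolding free energy was obtained by comparing it with a sequence-predicted unfolded-state K50 and a shared folded-state K50, for each protease separately or for both together. Designs were retained only if their AlphaFold2 dimer inter-PAE exceeded 15.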

[2] = folding stability dG unfold from trypsin proteolysis; higher = more stable
In short: as §1

[3] = folding stability dG unfold from chymotrypsin proteolysis; higher = more stable
In short: as §1

Sequence	folding stability dG unfold [1] [kcal/mol]	folding stability dG unfold [2] [kcal/mol]	folding stability dG unfold [3] [kcal/mol]
SAGGSAGGSETVTLELTLEDGRTLRIEFDPETQRLTVTFPDGSKQEIEVETLDDALAALLEALSAGGSAGGS [r12_866_TrROS_Hall]	3.6 ± 0.062	2.91 ± 0.11	3.81 ± 0.072
SMPEPLVLRVRVRDPENPEPVLEFELVIPPDGGVLVLARHPDRVEVREMPLEEAIDLLLSLPFEIEEVEGSA [r9_470_TrMRF]	3.14 ± 0.14	2.85 ± 0.068	3.32 ± 0.085
SAGGSAGGSKKITIVVPTKEQAEALAKALEEAGYKVEKLPDGTLKITVDGKKIEVRIVPPKPKSAGGSAGGS [r12_204_TrROS_Hall]	2.7 ± 0.059	1.28 ± 0.023	3.15 ± 0.047
SAGGKEVKIKIETKTLPNGVKVVKMTVELPDGKTVEMVMVENKKTGKMVMFEVKLDKNGKIVEIKAFPSAGG [r13_323_TrROS_Hall]	3.33 ± 0.41	2.66 ± 0.16	3.43 ± 0.16
SAGGSMPFRPLDVKVTVERLPDGTIRITTTLRQPDSPAAVTTEVKEVPLAELVKKRGRPVTAEDLLSAGGSA [r2_180_JUSTAS]	0.858 ± 0.19	0.132 ± 0.12	1.21 ± 0.096
SAGGSAGGEELLATATPVTVGDEVYYRFTIRNPDGTPIGDRLVPASVLSGYSPDTVITLPPDLLSAGGSAGG [r6_34_JUSTAS]	1.04 ± 0.094	1.29 ± 0.024	0.784 ± 0.16
SKKPKVEIEIEIPSVISATPIPNTDEVLVNVPYRVKIKVIGEGPPKEVEVDLPGIMLVSDFIDELKKLLGSA [r9_656_TrMRF]	1.74 ± 0.098	1.72 ± 0.072	1.74 ± 0.046
SAGGSASEELVEEIANIIKPALEEEGIEVERVEATAVTLPDGTVVIPVRVRTKDGPEVLEFNIVILSAGGSA [r15_232_TrMRF]	1.19 ± 0.038	1.1 ± 0.027	1.235 ± 0.012
SGSFASVTEDSLPDGGGYIVATEVSTGASRVYPPGTVVAEPAPADSTLVETLYDPATGEPLSTTTRTVAASA [r9_209_JUSTAS]	-0.0457 ± 0.11	-0.712 ± 0.2	0.00381 ± 0.13
SAGGPGWRTINIPVWFKPGDSLDEIEEKARELVDPIADRNGLDIEVNIEVERDPDGYYRFNVQITVPSAGGS [r16_279_TrROS]	1.96 ± 0.13	1.27 ± 0.097	2.34 ± 0.071
SAGGSAGGSAGGSSMTIEEQKEKIKKEVPLGKSVTIEYPDKTVTLTIDPKSGKITVTISSAGGSAGGSAGGS [r4_150_JUSTAS]	1.17 ± 0.12	0.61 ± 0.079	1.44 ± 0.021
SAGGSAGGLYIVRIEIYHPENGKEWTIMIPVPSEEEAKEEAEELAKTFAKKNGYKIEVEVFPLPSAGGSAGG [r6_787_TrROS]	2.11 ± 0.1	1.53 ± 0.033	2.5 ± 0.067
SAGGSAGGSAGSLTLVSTSSDETEEPVVRYREVYAGPVPVRVTAEESLENPGNPRLRVVLSAGGSAGGSAGG [r11_618_JUSTAS]	-0.251 ± 0.14	-0.53 ± 0.22	-0.275 ± 0.39
SNNNEVTIEIMIMFKYPRPEYDPDNGKPEPEPVYFMFPIKIEGKADDPEDAKRAADNILDRFLKDPDYIMSA [r9_77_TrROS]	2.6 ± 0.17	1.79 ± 0.12	2.95 ± 0.045
SAGGMTVKITIEVEEPGKTAEELAEELARELEKAGFKVEVVSVEVEEVDGRLIVTIEVKVDSEEALKASAGG [r13_979_TrROS_Hall]	2.52 ± 0.058	2.36 ± 0.055	2.55 ± 0.077
SAGGSAGGTIWFDNPEDVERVVKDLRQEFPPDNPIDIMIWGPGSMYVIEITPDKIKDVEVYPMDSAGGSAGG [r6_289_TrROS]	0.598 ± 0.27	0.318 ± 0.082	0.683 ± 0.14
SAGGSAGGSAVVTLSPDGRRITITSRTVTYFKVTNTDDIAIETSVETVVTPLPSLGSPEVLASAGGSAGGSA [r18_6_JUSTAS]	2.56 ± 0.28	3.04 ± 0.13	2.1 ± 0.098
SAGGMTIVEVEYTAYDLNSNKSVVVKAYKDPSTGKMTITSSDGVEGEFDPVTKTISLPRGSKSVTLGSAGGS [r16_743_JUSTAS]	0.521 ± 0.081	0.266 ± 0.074	0.623 ± 0.11
SAGGSAGGLTLRLELEIRLEDGLTLRVRVEYDLETNEVKIEIELLPPAPPVEEEPEVLVVEEEESAGGSAGG [r6_926_TrROS_Hall]	3.78 ± 0.41	3 ± 0.29	4.28 ± 0.29
SMKPEEVKVIAEIEIEVNGKKIKIKIVKKKDGTVRVEIEVDGKKIEIEVKVKSKEEAKKILEELLKKLGISA [r9_758_TrROS_Hall]	2.41 ± 0.52	2.93 ± 0.4	1.53 ± 0.14
SAGRVRLEIVIMIPIDPEQLENLPPSIRDPNGMEIYENGDMIMIKMPIPIPPPPVPDPDGKKMTPEELSAGG [r19_148_TrROS]	0.982 ± 0.24	1.44 ± 0.052	0.493 ± 0.11

Sequence	folding stability dG unfold [1] [kcal/mol]	folding stability dG unfold [2] [kcal/mol]	folding stability dG unfold [3] [kcal/mol]
SAGGSAGGSAGLDPDDPNYKIIPMTMEIKVEEYRMDPDGKMERQEQEHPIPILIIVPPGDSAGGSAGGSAGG [r17_523_TrROS]	0.365 ± 0.22	0.933 ± 0.074	-0.37 ± 0.28
SAGGSAGGMKVKIVSFDPENQEVVIYDEKTGKEIVVKAKSVEELKAALEKLGLEVEVEVLPPEESAGGSAGG [r6_27_TrROS_Hall]	3.3 ± 0.39	2.99 ± 0.43	3.19 ± 0.26
SAGDDWIPIEEIARRIARKHGYPVKSVEVPIYKTPDYYYVTVHIKYENPDDGKKQEFEDQFWIPKDEIKSAG [r5_421_TrROS]	0.886 ± 0.17	0.968 ± 0.065	0.97 ± 0.054
SAGGSAGGSMGLNVTYTVNVTHPDGTVETFPFEFDGTPEEAEEFARAIAEAHPDVKVTVTPGASAGGSAGGS [r12_268_TrMRF]	3.05 ± 0.076	3.06 ± 0.12	3.06 ± 0.037
SAGGSAGGSKKKVKVVKVEKLEDGSVRVLLYNEDGELVLEIEFPPGMTEEEVEELVKKLLEELSAGGSAGGS [r12_798_TrROS_Hall]	2.69 ± 0.13	2.47 ± 0.1	2.72 ± 0.13
SMSLTIPEELIEAIKKALEELEPGEEVTITYNLPDGSVITVKVVGKGEVTITVYSSPDSQTQTYTFEIKESA [r9_132_JUSTAS]	3.25 ± 0.069	3.15 ± 0.061	3.313 ± 0.023
SAGGKDIKVTVEKVGDELYILVEASKEEVEALLKAGKKEITIEINGKKVKVKAVKLPDGTVLFRVRLESAGG [r13_171_TrROS_Hall]	3.96 ± 0.065	3.28 ± 0.064	4.23 ± 0.052
SAGGSAGGSAGGPAPKIDIEIIGVFKTGNRPILIIRFPDGAVIVIDLDSGEIGVIPPDQISAGGSAGGSAGG [r7_28_TrROS]	2.66 ± 0.17	2.9 ± 0.19	2.24 ± 0.11
SAGGSAGQKIQIERVQWNPEEGYFFIRIRYPGNGREIEHHIRLDNIEIELPPGAKITDIEIYPLPNSAGGSA [r15_959_TrROS]	1.96 ± 0.13	1.8 ± 0.079	1.83 ± 0.12
SGQHKVTVPIEIRIYPPDPDGKWKPIGEIPIPVTYEYPKDQPEKAERQAREQVIDEIKKFAKKNGYRIYISA [r9_356_TrROS]	0.361 ± 0.2	0.452 ± 0.15	0.287 ± 0.36
SAGTAEEAKELARFFARELAPRNGMDVEIPDIKVETDPENGWIRITVEITFRWPHGRKQKHPFTIQIPVSAG [r5_381_TrROS]	1.47 ± 0.063	1.48 ± 0.047	1.25 ± 0.096
SAGGSAGGSAPKIIVVKPEDIVEAVKKADPNEKVLLFDPETGEIYEITPDKMEFIEKIPPGESAGGSAGGSA [r18_246_TrMRF]	0.466 ± 0.22	0.0456 ± 0.13	0.884 ± 0.039
SAGGSAGGSAGWFTVTMMFLFPNGWAIKITWTFRMDENGNLKLEWEVEIEPVPPLKPGDPSAGGSAGGSAGG [r11_728_TrROS]	> 6	4.38 ± 0.51	6.21 ± 0.35
MTIEITIVAKTEEEAKEAAEELARKLAEELGLSEEELENLKIEVEKVEVTNEDGEKYYVVKIKIELPPEFKS [r1_81_TrROS_Hall]	3.25 ± 0.4	2.93 ± 0.38	3.61 ± 0.25
SAGGSKKTIELVIKDKKTNKWLKITIEYDEETGEVTVTIYDKNGEVVKEIKMSKDELKKLLEKLGFSAGGSA [r2_115_TrROS_Hall]	4.28 ± 0.36	3.02 ± 0.22	4.37 ± 0.16
SMKSKISEIKSVEKKGNKVVVKVKIKAPKGKAYFIDSNGNIIKEVNLGKEVELEITFDSNNESFKVIVTDSA [r9_917_TrMRF]	1.84 ± 0.099	1.34 ± 0.065	1.99 ± 0.032
SAGGSAGGMYVIRVKIYDKETGELIEELTLVFDSEEEAERAVRELAAALPPDVRVEVEIVKLPPSAGGSAGG [r6_688_TrROS_Hall]	4.99 ± 0.096	5.01 ± 0.18	4.85 ± 0.059
SAGGMSEALLADPTVEKVELFPSPGVTVYYRPETGTWLIQPPDGSVEEIKMTPEELEKLIADGLKPASAGGS [r16_745_JUSTAS]	0.923 ± 0.1	0.839 ± 0.11	0.588 ± 0.23
SAGGSAKAEEIAKLLKELGFKEVKIEKDKETNKVTITVKKKDGSEIKITIDKKTKKIVKIEIKPKKSAGGSA [r15_648_TrROS_Hall]	1.99 ± 0.25	1.82 ± 0.067	1.78 ± 0.27
SAGGSAMTLEFKILFPNKTKEEAIKAIEEIPEEIKKNIKKIEILKIDPVGDEVIATLKIEVDPEFLSAGGSA [r15_244_TrMRF]	1.37 ± 0.29	0.723 ± 0.18	1.86 ± 0.24
SAGGSAGGMIPLEEIEIEEITEETLPSNEKVITVKVKFPDGTKTLTFEPNEGEEKILEKIKELTSAGGSAGG [r6_233_JUSTAS]	0.734 ± 0.082	0.544 ± 0.042	0.727 ± 0.034
